# Laboratory results: PMC3937519
# Key:
# [1] = target: HIV-1 NL4.3 Vif M29A, recombinant (E. coli) (HIV-1 NL4.3); assay: pull-down
# [2] = target: HIV-1 NL4.3 Vif Y30A, recombinant (E. coli) (HIV-1 NL4.3); assay: pull-down
# [3] = target: HIV-1 NL4.3 Vif H28A, recombinant (E. coli) (HIV-1 NL4.3); assay: pull-down
# [4] = target: HIV-1 NL4.3 Vif H27A, recombinant (E. coli) (HIV-1 NL4.3); assay: pull-down
# [5] = target: Vif H27A-CBF-β-Elo B/C complex (HIV-1 NL4.3 | human | not stated) (UniProt Q13951); assay: ITC
# [6] = target: Vif H108A-CBF-β-Elo B/C complex (HIV-1 NL4.3 | human | not stated) (UniProt Q13951); assay: ITC
# [7] = target: Vif V25A-CBF-β-Elo B/C complex (HIV-1 NL4.3 | human | not stated) (UniProt Q13951); assay: ITC
# [8] = target: wild-type Vif-CBF-β-Elo B/C complex (HIV-1 NL4.3 | human | not stated) (UniProt Q13951); assay: ITC
Substance,percent reduction of Cul5 binding against wild-type Vif [1],percent reduction of Cul5 binding against wild-type Vif [2],percent reduction of Cul5 binding against wild-type Vif [3],percent reduction of Cul5 binding against wild-type Vif [4],Kd [5],Kd [6],dH [6],Kd [7],Kd [8],dH [8]
"N-terminal Cul5, co-expressed in E. coli (Cul5/Vif pET-Duet) (domain or fragment)",> 60%,> 60%,20%,> 60%,–,–,–,–,–,–
"Cul5-NTD (residues 1 to 393, V341R, L345D) (from UniProt Q93034 1-393) (domain or fragment)",–,–,–,–,660 nM,36 nM,-4 kcal/mol,511 nM,5.9 nM,-9 kcal/mol
